Data as given in article PMC9352680, “A comprehensive thermodynamic model for RNA binding by the Saccharomyces cerevisiae Pumilio protein PUF4”.
Where a chain is given by its changes, count along the chain named. Names and notes keep the numbering of the source.

Target: T1, PUF4 RNA-binding domain (Saccharomyces cerevisiae, UniProt P25339 537-888)
T1 sequence: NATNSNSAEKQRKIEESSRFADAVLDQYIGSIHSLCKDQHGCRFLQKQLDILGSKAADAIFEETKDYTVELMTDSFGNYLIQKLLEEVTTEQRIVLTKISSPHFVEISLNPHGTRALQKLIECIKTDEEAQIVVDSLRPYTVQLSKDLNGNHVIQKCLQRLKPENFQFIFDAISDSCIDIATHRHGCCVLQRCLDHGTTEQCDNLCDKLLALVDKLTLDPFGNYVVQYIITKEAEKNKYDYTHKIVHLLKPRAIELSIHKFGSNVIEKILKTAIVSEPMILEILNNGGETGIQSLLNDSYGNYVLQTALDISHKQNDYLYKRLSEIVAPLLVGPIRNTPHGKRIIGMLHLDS
Test: Mg; RNA-MaP; 20 mM Na-HEPES pH 7.4, 30 mM KOAc, 0.75 mM MgCl2, 0.1% Tween-20, 5% glycerol, 0.1 mg/mL BSA, 2 mM DTT; 25 C; 0.0125-409.6 nM protein
Conditions: tags: N-His6-TEV cleaved; C-SNAP kept, Cy3B-labelled; label: tethered on chip by stalled RNA polymerase

B1: Ib_S1_P5E.1_K5.1_C5.1_H5.1_A5.1_[T6C]_F5.1_[T9C]_T5.1 (ssRNA)
RNA: UCUCUUUGUAUCAUCAUCUCUU
  Kd: 15.5 nM

B2: Ic_S1_P5E.1_K5.1_C5.1_H5.1_A5.1_[T6A]_F5.1_[T9C]_T5.1 (ssRNA)
RNA: UCUCUUUGUAUAAUCAUCUCUU
  Kd: 19.7 nM

B3: Ib_S1_P5E.1_K5.1_C5.1_H5.1_A5.1_[A7C]_F5.1_[T9G]_T5.1 (ssRNA)
RNA: UCUCUUUGUAUUCUGAUCUCUU
  Kd: 60.1 nM

B4: Ib_S1_P5E.1_K5.1_C5.1_H5.1_A5.1_[T6C]_F5.1_[T9G]_T5.1 (ssRNA)
RNA: UCUCUUUGUAUCAUGAUCUCUU
  Kd: 24.9 nM

B5: Id_ii_S2_P5E.4_K5.3_C5.2_[C-2A]_[T-1C]_H5.3_A5.1_F5.1_T5.2_[T11C] (ssRNA)
RNA: UUUGAUUAAUAUGAUAUCGUUCUUUCUACACACUUAUUACAUUCUUUCUCGAUAUCAUAUUAAUCUUU
  Kd: > 2300 nM

B6: Id_ii_S2_P5E.4_K5.3_C5.2_[T-1A]_H5.3_A5.1_F5.1_T5.2_[T11C]_[A12T] (ssRNA)
RNA: B5 RNA with A28C, C29A, A41U
  Kd: > 2300 nM

B7: Id_ii_S2_P5E.4_K5.3_C5.2_H5.3_A5.1_F5.1_T5.2_[T11G]_[A12C] (ssRNA)
RNA: B5 RNA with A28C, C29U, C40G, A41C
  Kd: > 2300 nM

B8: Id_ii_S2_P5E.4_K5.3_C5.2_[T-1A]_H5.3_A5.1_F5.1_T5.2_[T11C] (ssRNA)
RNA: B5 RNA with A28C, C29A
  Kd: > 2300 nM

B9: Id_ii_S2_P5E.4_K5.3_C5.2_[C-2A]_H5.3_A5.1_F5.1_T5.2_[T11G]_[A12C] (ssRNA)
RNA: B5 RNA with C29U, C40G, A41C
  Kd: 902 nM

B10: Id_ii_S2_P5E.4_K5.3_C5.2_[C-2A]_H5.3_A5.1_F5.1_T5.2 (ssRNA)
RNA: B5 RNA with C29U, C40U
  Kd: 674 nM

B11: Id_ii_S2_P5E.4_K5.3_C5.2_[T-1A]_H5.3_A5.1_F5.1_T5.2_[T11C]_[A12C] (ssRNA)
RNA: B5 RNA with A28C, C29A, A41C
  Kd: > 2300 nM

B12: Id_ii_S2_P5E.4_K5.3_C5.2_[C-2A]_H5.3_A5.1_F5.1_T5.2_[T11C]_[A12G] (ssRNA)
RNA: B5 RNA with C29U, A41G
  Kd: 674 nM

B13: Id_ii_S2_P5E.4_K5.3_C5.2_[T-1C]_H5.3_A5.1_F5.1_T5.2_[T11C]_[A12C] (ssRNA)
RNA: B5 RNA with A28C, A41C
  Kd: > 2300 nM

B14: Id_ii_S2_P5E.4_K5.3_C5.2_[C-2A]_[T-1A]_H5.3_A5.1_F5.1_T5.2_[T11A] (ssRNA)
RNA: B5 RNA with C29A, C40A
  Kd: > 2300 nM

B15: Id_ii_S2_P5E.4_K5.3_C5.2_[T-1C]_H5.3_A5.1_F5.1_T5.2_[T11C]_[A12G] (ssRNA)
RNA: B5 RNA with A28C, A41G
  Kd: > 2300 nM

B16: Id_ii_S2_P5E.4_K5.3_C5.2_[C-2A]_[T-1C]_H5.3_A5.1_F5.1_T5.2 (ssRNA)
RNA: B5 RNA with C40U
  Kd: 754 nM

B17: Id_ii_S2_P5E.4_K5.3_C5.2_[T-1C]_H5.3_A5.1_F5.1_T5.2_[A12C] (ssRNA)
RNA: B5 RNA with A28C, C40U, A41C
  Kd: > 2300 nM

B18: Id_ii_S2_P5E.4_K5.3_C5.2_[T-1G]_H5.3_A5.1_F5.1_T5.2_[A12C] (ssRNA)
RNA: B5 RNA with A28C, C29G, C40U, A41C
  Kd: > 2300 nM

B19: Id_ii_S2_P5E.4_K5.3_C5.2_[T-1A]_H5.3_A5.1_F5.1_T5.2_[T11C]_[A12G] (ssRNA)
RNA: B5 RNA with A28C, C29A, A41G
  Kd: > 2300 nM

B20: Id_ii_S2_P5E.4_K5.3_C5.2_[T-1G]_H5.3_A5.1_F5.1_T5.2_[T11C]_[A12T] (ssRNA)
RNA: B5 RNA with A28C, C29G, A41U
  Kd: > 2300 nM

B21: Id_ii_S2_P5E.4_K5.3_C5.2_[C-2A]_[T-1C]_H5.3_A5.1_F5.1_T5.2_[A12C] (ssRNA)
RNA: B5 RNA with C40U, A41C
  Kd: > 2300 nM

B22: Id_ii_S2_P5E.4_K5.3_C5.2_[C-2A]_[T-1A]_H5.3_A5.1_F5.1_T5.2 (ssRNA)
RNA: B5 RNA with C29A, C40U
  Kd: 875 nM

B23: Id_ii_S2_P5E.4_K5.3_C5.2_[C-2A]_H5.3_A5.1_F5.1_T5.2_[A12G] (ssRNA)
RNA: B5 RNA with C29U, C40U, A41G
  Kd: 1310 nM

B24: Id_ii_S2_P5E.4_K5.3_C5.2_H5.3_A5.1_F5.1_T5.2_[T11C]_[A12T] (ssRNA)
RNA: B5 RNA with A28C, C29U, A41U
  Kd: > 2300 nM

B25: Id_ii_S2_P5E.4_K5.3_C5.2_[C-2A]_[T-1C]_H5.3_A5.1_F5.1_T5.2_[T11A] (ssRNA)
RNA: B5 RNA with C40A
  Kd: > 2300 nM

B26: Id_ii_S2_P5E.4_K5.3_C5.2_[C-2A]_H5.3_A5.1_F5.1_T5.2_[T11C]_[A12T] (ssRNA)
RNA: B5 RNA with C29U, A41U
  Kd: 117 nM

B27: Id_ii_S2_P5E.4_K5.3_C5.2_[T-1C]_H5.3_A5.1_F5.1_T5.2_[A12T] (ssRNA)
RNA: B5 RNA with A28C, C40U, A41U
  Kd: 1720 nM

B28: Id_ii_S2_P5E.4_K5.3_C5.2_[T-1C]_H5.3_A5.1_F5.1_T5.2_[T11A] (ssRNA)
RNA: B5 RNA with A28C, C40A
  Kd: > 2300 nM

B29: Id_ii_S2_P5E.4_K5.3_C5.2_[C-2A]_H5.3_A5.1_F5.1_T5.2_[T11C] (ssRNA)
RNA: B5 RNA with C29U
  Kd: 136 nM

B30: Id_ii_S2_P5E.4_K5.3_C5.2_H5.3_A5.1_F5.1_T5.2_[T11C] (ssRNA)
RNA: B5 RNA with A28C, C29U
  Kd: > 2300 nM

B31: Id_ii_S2_P5E.4_K5.3_C5.2_[T-1C]_H5.3_A5.1_F5.1_T5.2 (ssRNA)
RNA: B5 RNA with A28C, C40U
  Kd: 651 nM

B32: Id_ii_S2_P5E.4_K5.3_C5.2_[C-2A]_[T-1A]_H5.3_A5.1_F5.1_T5.2_[T11C]_[A12G] (ssRNA)
RNA: B5 RNA with C29A, A41G
  Kd: > 2300 nM

B33: Id_ii_S2_P5E.4_K5.3_C5.2_H5.3_A5.1_F5.1_T5.2_[T11C]_[A12C] (ssRNA)
RNA: B5 RNA with A28C, C29U, A41C
  Kd: > 2300 nM

B34: Id_ii_S2_P5E.4_K5.3_C5.2_[T-1A]_H5.3_A5.1_F5.1_T5.2_[A12T] (ssRNA)
RNA: B5 RNA with A28C, C29A, C40U, A41U
  Kd: > 2300 nM

B35: Id_ii_S2_P5E.4_K5.3_C5.2_[T-1A]_H5.3_A5.1_F5.1_T5.2_[A12C] (ssRNA)
RNA: B5 RNA with A28C, C29A, C40U, A41C
  Kd: > 2300 nM

B36: Id_ii_S2_P5E.4_K5.3_C5.2_[C-2A]_[T-1A]_H5.3_A5.1_F5.1_T5.2_[A12C] (ssRNA)
RNA: B5 RNA with C29A, C40U, A41C
  Kd: > 2300 nM

B37: Id_ii_S2_P5E.4_K5.3_C5.2_[T-1G]_H5.3_A5.1_F5.1_T5.2_[T11A]_[A12C] (ssRNA)
RNA: B5 RNA with A28C, C29G, C40A, A41C
  Kd: > 2300 nM

B38: Id_ii_S2_P5E.4_K5.3_C5.2_[C-2A]_[T-1C]_H5.3_A5.1_F5.1_T5.2_[T11A]_[A12C] (ssRNA)
RNA: B5 RNA with C40A, A41C
  Kd: > 2300 nM

B39: Id_ii_S2_P5E.4_K5.3_C5.2_[T-1C]_H5.3_A5.1_F5.1_T5.2_[T11G]_[A12C] (ssRNA)
RNA: B5 RNA with A28C, C40G, A41C
  Kd: > 2300 nM

B40: Id_ii_S2_P5E.4_K5.3_C5.2_[C-2A]_H5.3_A5.1_F5.1_T5.2_[T11A] (ssRNA)
RNA: B5 RNA with C29U, C40A
  Kd: 208 nM

B41: Id_ii_S2_P5E.4_K5.3_C5.2_[T-1A]_H5.3_A5.1_F5.1_T5.2 (ssRNA)
RNA: B5 RNA with A28C, C29A, C40U
  Kd: 591 nM

B42: Id_ii_S2_P5E.4_K5.3_C5.2_[C-2A]_[T-1A]_H5.3_A5.1_F5.1_T5.2_[T11C]_[A12C] (ssRNA)
RNA: B5 RNA with C29A, A41C
  Kd: > 2300 nM

B43: Id_ii_S2_P5E.4_K5.3_C5.2_[C-2A]_H5.3_A5.1_F5.1_T5.2_[T11A]_[A12T] (ssRNA)
RNA: B5 RNA with C29U, C40A, A41U
  Kd: 129 nM

B44: Id_ii_S2_P5E.4_K5.3_C5.2_[C-2A]_[T-1C]_H5.3_A5.1_F5.1_T5.2_[A12T] (ssRNA)
RNA: B5 RNA with C40U, A41U
  Kd: > 2300 nM

B45: Id_ii_S2_P5E.4_K5.3_C5.2_[T-1A]_H5.3_A5.1_F5.1_T5.2_[T11A]_[A12T] (ssRNA)
RNA: B5 RNA with A28C, C29A, C40A, A41U
  Kd: > 2300 nM

B46: Id_ii_S2_P5E.4_K5.3_C5.2_[C-2A]_H5.3_A5.1_F5.1_T5.2_[T11C]_[A12C] (ssRNA)
RNA: B5 RNA with C29U, A41C
  Kd: 110 nM

B47: Id_ii_S2_P5E.4_K5.3_C5.2_[T-1G]_H5.3_A5.1_F5.1_T5.2_[T11C] (ssRNA)
RNA: B5 RNA with A28C, C29G
  Kd: > 2300 nM

B48: Id_ii_S2_P5E.4_K5.3_C5.2_[C-2A]_H5.3_A5.1_F5.1_T5.2_[A12C] (ssRNA)
RNA: B5 RNA with C29U, C40U, A41C
  Kd: 131 nM

B49: Id_ii_S2_P5E.4_K5.3_C5.2_[T-1C]_H5.3_A5.1_F5.1_T5.2_[T11C] (ssRNA)
RNA: B5 RNA with A28C
  Kd: > 2300 nM

B50: Id_ii_S2_P5E.4_K5.3_C5.2_[C-2A]_H5.3_A5.1_F5.1_T5.2_[A12T] (ssRNA)
RNA: B5 RNA with C29U, C40U, A41U
  Kd: 97.8 nM

B51: Id_ii_S2_P5E.4_K5.3_C5.2_[T-1G]_H5.3_A5.1_F5.1_T5.2_[A12T] (ssRNA)
RNA: B5 RNA with A28C, C29G, C40U, A41U
  Kd: > 2300 nM

B52: Id_ii_S2_P5E.4_K5.3_C5.2_[C-2A]_[T-1A]_H5.3_A5.1_F5.1_T5.2_[A12T] (ssRNA)
RNA: B5 RNA with C29A, C40U, A41U
  Kd: > 2300 nM

B53: Id_ii_S2_P5E.4_K5.3_C5.2_[T-1G]_H5.3_A5.1_F5.1_T5.2 (ssRNA)
RNA: B5 RNA with A28C, C29G, C40U
  Kd: 831 nM

B54: Id_ii_S2_P5E.4_K5.3_C5.2_[C-2A]_H5.3_A5.1_F5.1_T5.2_[T11A]_[A12C] (ssRNA)
RNA: B5 RNA with C29U, C40A, A41C
  Kd: 161 nM

B55: Id_ii_S2_P5E.4_K5.3_C5.2_[C-2A]_[T-1A]_H5.3_A5.1_F5.1_T5.2_[T11C] (ssRNA)
RNA: B5 RNA with C29A
  Kd: > 2300 nM

B56: Ia_S1_P5E.1_K5.1_C5.1_H5.1_[A4T]_A5.1_F5.1_T5.1 (ssRNA)
RNA: UCUCUUUGUUUUAUUAUCUCUU
  Kd: 24.7 nM

B57: Ib_S1_P5E.1_K5.1_C5.1_H5.1_A5.1_[T6C]_F5.1_[T9A]_T5.1 (ssRNA)
RNA: UCUCUUUGUAUCAUAAUCUCUU
  Kd: 2.4 nM

B58: Ib_S1_P5E.1_K5.1_C5.1_H5.1_A5.1_[T6A]_F5.1_[T9A]_T5.1 (ssRNA)
RNA: UCUCUUUGUAUAAUAAUCUCUU
  Kd: 1.68 nM
